We go through three molecules from US20250304697A1 (ONECHAIN IMNUNOTHERAPEUTICS S L, published 2025).

For assay [1], the target named is mCAR-CD1a (murine CAR-CD1a, scFv derived from the NA1/34.HLK clone) expressed on transduced T cells. Description: FACS of mCD1a-CAR-T cells incubated with rCD1a (25 nM by the legend paragraph 24, 200 nM by Example 11 paragraph 349), detection with anti-HIS-APC; UT cells in the same gate 0,2% [cont.) B].
Assay [2] concerns the target T1, human recombinant protein extracellular domain of CD1a (rCD1a), produced with a 6xHis tag as a dimer with … (human, UniProt P06126 17-300; P61769 21-119).
T1 construct: Used soluble in flow cytometry on CAR-T cells (detected with anti-HIS-APC) and immobilized on CM5 chips in SPR; also called rCD1a-HIS; recombinant protein CD1a; not shown: 6xHis tag
Description: SPR, ratio of KD against mscFv-CD1a. For orientation: SPR reads the build-up and loss of mass on a sensor chip optically.

Assay [3] addresses T1, human recombinant protein extracellular …. Description: SPR, Biacore T-200, rCD1a immobilized on CM5 chip, soluble scFv, 1:1 binding fit, 298 K.

Molecule “human recombinant protein extracellular domain of CD1a (rCD1a), produced with a 6xHis tag as a dimer with b2-microglobulin (hB2M) (from UniProt P06126 17-300; P61769 21-119)” displayed a % of rCD1a positive bound cells in assay [1] of 23.3%.

B1: h(2)scFv-CD1a: recombinant humanized (H2 version) scFv anti-CD1a with a 6xHis tag, from XtenCHO cells (scFv)
scFv: QVQLQQSGAEVKKPGASVKVSCKASGYAFSTYTMHWVRQAPGQGLEWMGYINPNSASTSYAQKFQGRVTMTADKSTNTAYMELSSLRSEDTAVYYCARGFYTMDYWGQGTLVTVSSGGGGSGGGGSGGGGSGGGGSRDIQMTQSPSSLSASVGDRVTITCQASQDINKYIAWYQFKPGKGPRLLIHYTSTLEPAIPSRFSGSGSGREYTFTISSLQPEDIATYYCLHYDNLPWTFGGGTKVEIKRA
notes: also called hscFv-CD1a; humanized2_scFv-anti-CD1a; not shown: 6xHis tag
As to B1, the “fold higher affinity than the murine scFv (mscFv-CD1a)” value in assay [2] was 2.4 fold. Moreover, in assay [3], the Kd amounted to 21 nM, the koff worked out at 0.0012 s⁻¹ and the kon was found to be 56300 M⁻¹ s⁻¹.

B2: mscFv-CD1a: recombinant murine scFv anti-CD1a with a 6xHis tag, from XtenCHO cells (scFv)
scFv: QVQLQQSGAELARPGASVKMSCKASGYAFSTYTMHWVKQRPRQGLEWIGYINPNSASTSYNENFKDKATLTADKSSNTAYMHLSSLTSEDSAVYYCARGFYTMDYWGQGTSVTVSSGGGGSGGGGSGGGGSGGGGSRDIQMTQSPSSLSASLGGKVTITCQASQDINKYIAWYQFKPGKGPRLLIHYTSTLQPAIPSRFSGSGSGREYSFSISNLEPEDIATYYCLHYDNLPWTFGGGTKLEIKRAHHHHHH
With B2, in assay [3], the Kd is 50 nM, the koff is 0.00121 s⁻¹ and the kon came out at 24600 M⁻¹ s⁻¹.

The term Kd denotes the free concentration of one partner at which half of the binding sites on the other are occupied at equilibrium, for simple one-to-one binding. What is called koff is a measure of how fast the partners let go of each other. For orientation: kon means the second-order rate constant of association.
